In US20110319318A1, “COVALENT MILK PROTEIN/ISOTHIOCYANATE COMPLEXES” (NESTEC S.A., priority 2009, published 2011):

Assays:
[1] = Emulsifying properties, 10% sunflower oil-in-water emulsions, stability on storage; format: physicochemical
Procedure: Emulsifying properties of BLG-AITC conjugates, non-heated and heated at pH 7.0 and 4.0 (prepared as described in examples 1 and 2), were evaluated by preparing emulsions containing 10% (w/w) of “high oleic” sunflower oil (Oleifico SABO, Manno, Switzerland). Samples containing BLG-AITC conjugates in the equimolar ratio were diluted to 0.25 mM BLG and mixed with oil in a pyrex tube (D 25 mm, V 35 mL) to a final weight of 20 g. They were pre-homogenized using an Ultra Turrax® T25 equipped with a S25N-10G dispersing head (IKA-Werke, Staufen, Germany) rotating at 16,000 rpm for 1 minute. Homogenization of emulsions was completed using an ultrasonic processor (Hielscher UP400S, power 400 W, frequency 24 kHz) and a sonotrode (diameter 7 mm, approx. length 100 mm, titanium) at room temperature for 75 seconds and 75% amplitude of the ultrasound maximal power. This emulsification time was enough to disperse the oil in small droplets and to avoid excessive heating of the sample.
Stability of emulsions to creaming and flocculation was followed over 33 days of storage at 4° C.

[2] = target: T1, β-lactoglobulin (BLG) (Bos taurus, UniProt P02754); test: Binding of AITC to BLG from disappearance of free -SH / -NH2 groups (Ellman's reagent, OPA); set-up: species or system bovine; settings: 25° C., pH 8.5
T1 construct: The composition in the major whey protein fraction was 89.22% BLG; purchased Davisco Biopure, lot JE 001-3-922
T1 sequence (P02754 17-178): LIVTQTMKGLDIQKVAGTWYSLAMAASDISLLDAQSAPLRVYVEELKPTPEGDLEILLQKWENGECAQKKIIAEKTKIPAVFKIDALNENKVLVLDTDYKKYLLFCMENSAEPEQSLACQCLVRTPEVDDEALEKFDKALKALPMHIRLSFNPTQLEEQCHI
Procedure: A volume of 50 mL of mixtures was prepared by mixing 1 mM BLG (pH 8.5) with 200 mM AITC in Millipore® water to obtain AITC to BLG molar ratios from 0.1 to 40. Final concentration of ethanol in all sample solutions was adjusted to 5%. Samples were incubated 24 h at room temperature, under agitation (using a roller mixer SRT2, Milian, Switzerland) and protected from light. Upon incubation, contents in free sulfhydryl (—SH) and amino (—NH2) groups were determined using the Ellman's reagent [5,5′-dithio-bis(2-nitrobenzoic acid); DTNB] (Ellman G L. Tissue sulfhydryl groups. 1959. Arch Biochem Biophys, 82, 70-77) and o-phthaldialdehyde (OPA) methods (Hofmann K, Hamm R. Sulfhydryl and disulfide groups in meats. 1978. Adv Food Res, 24, 1-111), respectively.
To determine the amount of total —SH groups sample mixtures were diluted to the final BLG concentration 50 μM in 200 mM Tris-base (Tris(hydrohymethyl)-aminomethan) buffer containing 1% SDS and 8M urea at pH 8.0. 50 μL of 10 mM DTNB in ethanol was added to 3 mL of these samples and they were left 20 min at room temperature under mild agitation. The absorbance at 412 nm was measured against corresponding reagent blanks (1% ethanol in the buffer with DTNB) using an Uvikon® 810 spectrophotometer (Kontron Instruments, Basel, Switzerland). […] Therefore, absorbance values of samples were corrected for the absorbance of corresponding concentrations of AITC. Concentration of SH groups in sample solutions was assessed according to the previously made standard calibration curve. For that purpose L-Cys (Fluka, Switzerland) dissolved in the same buffer in concentration range 0.005-0.1 mM was used.
Quantitative determination of free α- and ε-amino groups was done using the approach based on the method of Goodno et al. (Goodno C. C. Swaisgood H. E., Catignani G. L.; (1981). A fluorimetric assay for available lysine in proteins. Anal. Biochem. 115(1), 203-211.) with modifications done in our laboratory. Briefly, the determination of amino groups was carried out by mixing sample solutions (0.1 mL) with 0.3% (w/v) N-acetyl-L-cystein (Fluka, Switzerland) in borate buffer pH 9.3 (9.1 mL) and 20% SDS (w/w; 0.5 mL). […] Upon incubation, mixtures were allowed to cool down at room temperature for 30 minutes before absorbance reading was done at 340 nm. […] Therefore, absorbance values of samples were corrected for the absorbance of corresponding AITC concentrations. Concentration of free (α- and ε-) amino groups in sample solutions was assessed according to the previously made standard calibration curve. […]
Assuming that one AITC can bind per one —SH group or per one —NH2 group at the time, the molar binding ratio of AITC to BLG (BAITC/BLG) was estimated from measured values for free —SH and —NH2 groups. […]

[3] = Foaming properties (Foamscan); format: physicochemical; set-up: key to foam capacity: FC = volume of foam / volume of gas injected; key to foam expansion: FE = volume of foam / volume of liquid in the foam; settings: for foam capacity / foam expansion / foam liquid stability: 55 μM BLG; for foam volume stability: over 30 min
Procedure: Foaming properties of samples (prepared as described in example 1) were evaluated using the standardized method proposed by Guillerme C, Loisel W, Bertrand D, Popineau Y. Study of foam stability by video image analysis: Relationship with the quantity of liquid in the foams. 1993. J Text Stud, 24, 287-302. The apparatus used was a standard version of the Foamscan™ from Teclis-ITConcept (Longessaigne, France). The principle of the method is to foam a definite quantity of protein dispersion by infusing gas into it through a glass frit of specific porosity. The gas flow and duration of the bubbling are controlled. The foam is generated on the surface of the liquid and it rises in the glass tube where its height is followed in real time by image analysis using a charged-coupled device (CCD) camera. The amount of liquid incorporated into the foam and the drainage rate are followed by measuring the conductivity as a function of time and with reference to the conductivity of the solution before bubbling, in the cuvette (with the remaining liquid phase), and at electrodes placed at different heights of the tube (Kato A, Takahashi A, Matsudomi N, Kobayashi K. Determination of foaming properties of proteins by conductivity measurements. 1983. J Food Sci, 48, 62-65).
BLG-AITC conjugates were prepared as described in example 1 and then acidified to pH 7.0 or 4.0 by adding 1M HCl. The amount of HCl added was ˜0.02% and ˜0.8% of the total volume, for neutral and acidic pH adjustment, respectively. 12 mL of each sample at both pHs, was put into 12 mL-glass vial and heated on 85° C. for 15 min, in addition to 5 min necessary for temperature in the vial to reach 85° C. The heating was done without agitation, in a temperature-controlled water-bath. Subsequently, samples were let to cool down at room temperature over 40 minutes under a mild agitation, and then put on ice until further analysis.
A volume of 20 mL of the sample solution (non-heated and heated BLG-AITC covalent complexes with the AITC to BLG molar ratio 0.5, 1 and 2, at both pH), diluted to 55 μM BLG (0.1%) was placed in the cuvette. Nitrogen at the flow rate 80 mL/min was bubbled in through the glass frit of porosity 4, creating the air bubbles with diameters between 10 and 16 μm. This flow rate allowed efficient foam formation before strong gravitational drainage occurred. The bubbling was stopped when the foam volume of 110 cm^3 was reached. Subsequently, foam capacity (FC=volume of foam/volume of gas injected) and foam expansion (FE=volume of the foam/volume of the liquid in the foam) were calculated. Foam volume and liquid stability (time for the foam to drain 50% of its initial liquid content) were followed over next 30 min at 24±1° C.

[4] = test system: Staphylococcus aureus; test: Antimicrobial activity, optical density decrease at 600 nm; format: cell-based; settings: 0.5 mM BLG, AITC/BLG molar ratio 1 to 20, 24 h at 37° C.
Procedure: (§1) Antimicrobial properties of BLG-AITC conjugates were tested against Escherichia coli and Staphylococcus aureus. Single colony of each bacteria strain, previously grown on agar plates, was inoculated into 10 mL of brain-heart infusion (BHI) broth and incubated 24 h at 37° C. under agitation. For antimicrobial properties evaluation these pre-cultures were diluted 100 times in BHI broth.
(§2) BLG-AITC covalent complexes, with the AITC to BLG molar ratio 1, 2, 10 and 20, were prepared as described in the example 1 with the difference that 200 mM AITC solution was prepared in DMSO. Samples were subsequently acidified to pH 7.0 and then concentrated 5 times by using Centrisart® I centrifugal ultrafiltration units with cellulose triacetate ultrafilters having the molecular weight cut-off of 10 kDa (Sartorious, Germany) according to manufactures instructions.
(§3) An aliquot of 600 μL of concentrated samples was added to 2.4 mL of BHI broth containing E. coli or S. aureus to reach the starting concentrations of BLG (0.5 mM) and corresponding concentration of AITC. Controls in which 600 μL of 5% DMSO or water was added were prepared as well. Test tubes with sample mixtures were then incubated 24 h at 37° C. under stirring. Subsequently, optical densities (OD) of samples were measured at 600 nm. To evaluate the inhibition of bacteria growth, ODs of samples containing BLG-AITC covalent complexes were normalized by OD of the corresponding control and are expressed as the OD decrease in percentage.

[5] = test system: Escherichia coli; test: as above; format: cell-based; settings: 0.5 mM BLG, AITC/BLG molar ratio 1 to 20; 24 h at 37° C.; OD 600 nm
Procedure: as §1, §2, §3

[6] = pH 4.0 with heating (85° C., 15 min)
[7] = pH 7.0 with heating (85° C., 15 min)
[8] = pH 7.0, with or without heat treatment

**Q.** With C=CCN=C=S [AITC, Allyl-isothiocyanate] as the molecule, how does the “ability to emulsify the oil” value ([1]; 0.25 mM AITC alone, 10% of sunflower oil) read?
**A.** not able to properly emulsify

**Q.** What about the oiling-off ([1]; 0.25 mM AITC alone, at day=0 and after 24 days of storage) of the same molecule?
**A.** significant oiling-off

**Q.** And the “dissociation constant KD” value ([2]; -SH group of BLG)?
**A.** very low

**Q.** What about the “dissociation constant KD” value ([2]; amino groups of BLG) of the same molecule?
**A.** high

**Q.** And the “number of possible binding sites” value ([2]; amino groups of BLG)?
**A.** larger number of possible binding sites

**Q.** And the “maximum number of saturation site (nmax)” value ([2]; single free sulfhydryl group of BLG, one site binding fit)?
**A.** 0.84±0.06

**Q.** Which foam capacity [3, 6] does the source give for “AITC/BLG ratio 0.5: BLG-AITC covalent complex, AITC to BLG molar mixing ratio 0.5” here?
**A.** 1.16 ± 0.00

**Q.** And the foam expansion [3, 6]?
**A.** 7.1 ± 0.2

**Q.** And the foam liquid stability [3, 6]?
**A.** 200.0 ± 6.9 s

**Q.** What about the foam capacity ([3]; pH 4.0 without heating) of the same molecule?
**A.** 1.18 ± 0.01

**Q.** And the foam expansion ([3]; pH 4.0 without heating)?
**A.** 7.1 ± 0.0

**Q.** What about the foam liquid stability ([3]; pH 4.0 without heating) of the same molecule?
**A.** 204.5 ± 8.5 s

**Q.** And the foam capacity [3, 7]?
**A.** 1.14 ± 0.01

**Q.** And the foam expansion [3, 7]?
**A.** 6.7 ± 0.1

**Q.** What about the foam liquid stability [3, 7] of the same molecule?
**A.** 133.0 ± 4.7 s

**Q.** And the foam capacity ([3]; pH 7.0 without heating)?
**A.** 1.16 ± 0.01

**Q.** And the foam expansion ([3]; pH 7.0 without heating)?
**A.** 6.8 ± 0.1

**Q.** What about the foam liquid stability ([3]; pH 7.0 without heating) of the same molecule?
**A.** 152.0 ± 3.3 s

**Q.** Which results are given for “AITC/BLG ratio 1: BLG-AITC covalent complex, AITC to BLG molar mixing ratio 1”?
**A.** foam capacity [3, 6]: 1.17 ± 0.01; foam expansion [3, 6]: 7.3 ± 0.2; foam liquid stability [3, 6]: 190.5 ± 2.4 s; foam capacity ([3]; pH 4.0 without heating): 1.18 ± 0.01; foam expansion ([3]; pH 4.0 without heating): 7.1 ± 0.1; foam liquid stability ([3]; pH 4.0 without heating): 217.5 ± 1.0 s; foam volume stability [3, 8]: best foam stability; foam capacity [3, 7]: 1.14 ± 0.02; foam expansion [3, 7]: 6.8 ± 0.1; foam liquid stability [3, 7]: 130.0 ± 4.2 s; foam capacity ([3]; pH 7.0 without heating): 1.16 ± 0.01; foam expansion ([3]; pH 7.0 without heating): 6.7 ± 0.1; foam liquid stability ([3]; pH 7.0 without heating): 159.0 ± 1.8 s

**Q.** For “AITC/BLG ratio 2: BLG-AITC covalent complex, AITC to BLG molar mixing ratio 2”, which foam capacity [3, 6] is on record?
**A.** 1.16 ± 0.01

**Q.** And the foam expansion [3, 6]?
**A.** 7.1 ± 0.2

**Q.** And the foam liquid stability [3, 6]?
**A.** 193.0 ± 2.7 s

**Q.** And the foam capacity ([3]; pH 4.0 without heating)?
**A.** 1.18 ± 0.01

**Q.** And the foam expansion ([3]; pH 4.0 without heating)?
**A.** 7.0 ± 0.0

**Q.** And the foam liquid stability ([3]; pH 4.0 without heating)?
**A.** 216.3 ± 5.0 s

**Q.** What about the foam capacity [3, 7] of the same molecule?
**A.** 1.16 ± 0.01

**Q.** What about the foam expansion [3, 7] of the same molecule?
**A.** 6.7 ± 0.1

**Q.** What about the foam liquid stability [3, 7] of the same molecule?
**A.** 128.0 ± 3.8 s

**Q.** What about the foam capacity ([3]; pH 7.0 without heating) of the same molecule?
**A.** 1.17 ± 0.01

**Q.** And the foam expansion ([3]; pH 7.0 without heating)?
**A.** 6.8 ± 0.1

**Q.** And the foam liquid stability ([3]; pH 7.0 without heating)?
**A.** 145.5 ± 3.9 s

**Q.** With “BLG-AITC covalent complexes: covalent complexes of β-lactoglobulin and allyl isothiocyanate, various AITC to BLG molar ratios” as the molecule, how does the “improvement of foam liquid stability (more time stability)” value ([3]; foam produced in acidic conditions versus pH 7.0) read?
**A.** more than 30%

**Q.** And the foam volume stability ([3]; pH 4.0, without or with heating)?
**A.** more volume stable than at pH 7.0

**Q.** And the foam volume stability [3, 8]?
**A.** volume stable foams

**Q.** And the “stability of emulsions to creaming and flocculation” value ([1]; 10% sunflower oil, molar ratio 1:1, 0.25 mM BLG, 33 days of storage at 4° C., neutral or acidic pH, with or without heat treatment)?
**A.** very stable emulsions

**Q.** And the “sensitivity compared with E. coli” value [4]?
**A.** more sensitive

**Q.** And the “reduction of optical density (OD)” value ([4]; OD 600 nm)?
**A.** able to reduce the optical density

**Q.** And the “reduction of optical density (OD)” value [5]?
**A.** able to reduce the optical density
